One data set has as its target T1, DR4 (Homo sapiens, UniProt O00220).
T1 construct: purchased R&D systems 347-DR-100
Put plainly: SPR binding to immobilized DR4-Fc. The method, then: (§1) Binding experiments of TTPN and mTRAIL to TRAIL receptors DR4 and DR5 were analyzed at 25° C. using a surface plasmon resonance apparatus (SR7500 DC, Reichert Inc., NY, USA). DR4 and DR5-fc chimeric proteins (R&D systems 347-DR-100, 631-T2-100) were immobilized on the surface of the Planar Protein A sensor chip (Reichert, 13206069) and the receptors were coated at a level of 300 to 500 resonance units. SPR kinetic titrations were performed by adding 250 μl of TTPN and mTRAIL with different concentrations in the range of 1.56 to 400 nM and 0.1 to 25.6 μM, respectively, increasing by four times. Each analyte was run at 50 μL/min using running and sample buffer (0.5 M Tris-HCl (pH 7.4), 150 mM NaCl, 0.005% Tween 20), and binding of the ligand to the receptor was performed and monitored in real time. For titration sensorgrams, a simple 1:1 Langmuir interaction model (A+B↔AB) was applied using the data analysis program Scrubber 2.0 (BioLogic Software, Australia, and KaleidaGraph Software, Australia) and CLAMP software.
(§2) The affinity KD was determined from the formula of KD=kd/ka. Results are based on representative sensorgrams obtained from saturation binding reactions averaged over at least three independent runs of SPR measurements (FIG. 31).

Another data set addresses T2, DR5 (Homo sapiens, UniProt O14763).
T2 construct: purchased R&D systems 631-T2-100
Description: SPR binding to immobilized DR5-Fc. The settings on record: 25° C. The method, then:
as §1, §2

A short description of data set [1]: In vitro stability (soluble protein in buffer over time). The class given is physicochemical. The method, then: The stability of TTPN, DOX-TTPN and mTRAIL was investigated by measuring changes of concentration in a suitable buffer solution. […] At predetermined times, aggregated proteins were collected at 13,000 rpm for 10 minutes, and the concentration of soluble DOX-TTPN and TTPN in the supernatant was measured using absorbance in UV280.

Another data set relates to HepG2 cells. Description: Cell viability, CCK-8 assay, HepG2. The data set is classed as cell-based, human. The settings on record: TRAIL-sensitive HepG2 cells, 24 hours (FIG. 17). The method, then: (§3) After culturing for 24 hours, cell viability was measured using a cell counting kit (CCK)-8 assay (Dojindo Molecular Technologies, Gaithersburg, Md.). The plate was then read with an absorbance microplate reader (Spectramax 340, Molecular Devices Corporation) at a wavelength of 450 nm and 50% effective by regression analysis using SigmaPlot software (Systat Software, Inc., San Jose, Calif.). The concentration value was calculated.

The test system of a further data set is HEK293T cells. Put plainly: Cell viability, CCK-8 assay, HEK293T normal cells. The class given is cell-based. The settings on record: HEK293T normal cells (FIG. 18). The method, then: as §3
The test system of another data set is HT29 cells. Put plainly: Annexin V early apoptosis flow cytometry, HT29. The settings on record: HT29, low concentrations, 24 hours. The class given is cell-based, human. The method, then:
HepG2, HT29, or MCF7 cells (1.5×10^4) were cultured in a 96-well plate for 1 day, after which DOX-TTPNs, DOX-FTNs, free DOX, empty TTPNs, or buffer was added to each well. After 24 hours, cell viability was measured using a CCK-8 assay (Dojindo Molecular Technologies) according to the manufacturer's instructions. For analysis of early apoptosis, HT29 cells in 6-18 well culture plate were treated with DOX-TTPNs, free DOX, empty TTPNs, or buffer for 24 hours. Thereafter, cells were incubated with Alexa Fluor 488-conjugated annexin V (Invitrogen) 20 for 15 minutes, then analyzed using an Accuri™ C6 flow cytometer (BD Biosciences) and FlowJo 21 v10 software.

The subject of data set [2] is cleaved form of caspase-3. Put plainly: Western blot of HT29 lysates: cleaved caspase-3. The class given is cell-based, human. The settings on record: HT29, 50 nM, 24 hours. The method, then:
(§4) After incubating HT29 cells with 50 nM DOX-TTPNs, DOX-FTNs, free DOX, or buffer for 24 hours, cells were lysed with radioimmunoprecipitation assay (RIPA) buffer (Cell Signaling Technology) and the concentration of proteins was measured using a DC protein assay kit (Bio-Rad). Equal amounts of proteins (30 μg) were resolved by SDS-PAGE and transferred to nitrocellulose membranes. After blocking with 5% skim milk in Tris-buffered saline containing 0.1% Tween-20 (TBST), membranes were incubated first with anti-Cl-PARP, anti-Cl-caspase-6, anti-cFLIP, anti-Bcl-xL, anti-XIAP, anti-Cl-caspase-3, or anti-GAPDH primary antibody (Cell Signaling Technology), and then with anti-mouse or anti-rabbit secondary antibodies (Sigma-Aldrich), as appropriate. Immunoreactive proteins were visualized using enhanced chemiluminescence (ECL) chemical reagents (Bio-Rad) and ChemiDoc (Bio-Rad), and were analyzed using ImageJ software.

For the next data set, the system named is PARP. Description: Western blot of HT29 lysates: PARP. The class given is cell-based, human. The conditions noted are these: HT29, 24 hours. The method, then: as §4
In a further data set the test system is HT29 tumor. Description: TUNEL analysis of HT29 tumor tissue. The settings on record: HT29 tumor tissue at the end of the study. The data set is classed as in vivo, mouse.
Data set [3] in a line: Dynamic light scattering (DLS) size. The class given is physicochemical.

T1 sequence (O00220 with tags, fused parts or gaps limits assumed): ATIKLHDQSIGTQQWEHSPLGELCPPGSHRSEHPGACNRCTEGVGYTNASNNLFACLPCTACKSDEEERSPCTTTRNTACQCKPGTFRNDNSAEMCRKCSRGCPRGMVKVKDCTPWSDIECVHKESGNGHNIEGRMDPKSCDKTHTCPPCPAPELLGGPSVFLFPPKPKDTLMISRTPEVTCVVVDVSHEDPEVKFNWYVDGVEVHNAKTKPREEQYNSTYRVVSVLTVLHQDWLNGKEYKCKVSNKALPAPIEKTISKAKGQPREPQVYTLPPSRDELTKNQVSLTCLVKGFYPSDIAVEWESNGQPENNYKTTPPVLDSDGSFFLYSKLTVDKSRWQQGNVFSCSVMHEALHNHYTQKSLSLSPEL
T2 sequence (O14763 with tags, fused parts or gaps limits assumed): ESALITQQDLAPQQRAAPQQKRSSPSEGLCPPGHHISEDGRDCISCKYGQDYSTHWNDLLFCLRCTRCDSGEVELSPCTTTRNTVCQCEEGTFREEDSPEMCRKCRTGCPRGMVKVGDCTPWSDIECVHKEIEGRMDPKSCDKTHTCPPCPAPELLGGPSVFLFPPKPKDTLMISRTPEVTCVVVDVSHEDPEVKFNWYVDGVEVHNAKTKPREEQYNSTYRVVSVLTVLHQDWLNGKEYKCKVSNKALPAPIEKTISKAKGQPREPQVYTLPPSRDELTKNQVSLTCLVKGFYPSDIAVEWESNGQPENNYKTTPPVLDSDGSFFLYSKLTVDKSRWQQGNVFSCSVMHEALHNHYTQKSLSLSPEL
Description for HT29 tumor: In the evaluation of the anti-tumor effect of the present invention, BALB/c nude male mice (6-7 weeks old) were used as an animal model. Particularly, HT29 cells (5×10^6) and HepG2 cells (5×10^6) were subcutaneously inoculated into the left dorsal flank of BALB/c nude mice, respectively. After a volume of tumors reached ˜80-100 mm^3, mice were randomly divided into the 14 following five treatment groups (6 mice/group); DOX-TTPNs, DOX-FTNs, free DOX, empty TTPNs, and buffer. Mice were intravenously injected five times, once every 2 days, and volume of tumors was determined as 1/2(Length×Width^2). Apoptotic cell death in tumor tissues was analyzed using TUNEL staining (In situ Cell Death Detection kit; Roche), and cells were stained with DAPI (4′,6-diamidino-2-phenylindole), as previously described (Kih et al., Biomaterials 180: 67-77, 2018). Apoptotic cells were visualized under a Nikon Eclipse Ti microscope (Nikon) and quantified as the number of TUNEL-positive cells per total number of cells using ImageJ software. After 21 days from injecting tumor cells, tumor tissues were excised from the experimental mice, and cryo-sections (3.5 μm) were fixed with 10% neutral buffered formalin and paraffin-embedded tissue blocks.

“TTPN: protein nanocage presenting TRAIL as natural-like homo-trimers; TRAIL 95-281 fused by linker peptide to human ferritin heavy chain”: the ka with DR4 (DR4-Fc immobilized, 25° C.) is 3.23 (±0.26) · 10^4 M^−1 · S^−1; with DR5, 6.62 (±4.19) · 10^4 M^−1 · S^−1. The kd with DR4 (DR4-Fc immobilized, 25° C.) is listed as 2.42 (±0.48) · 10^−5 s^−1; with DR5 it was 1.49 (±1.13) · 10^−5 s^−1. Besides, the “increased affinity compared with monomeric TRAIL” value with DR4 (for DR4 and DR5) was “up to 330 fold”. Moreover, the “stability in solution” value in data set [1] (15 mg/mL in PBS buffer for 24 hours (FIG. 15)) was “remarkably improved stability”. In addition, the “amount maintained in the soluble form” value in [1] (after 1 month, 10 mg/mL (FIG. 16)) was “more than 90%”. Further, the “apoptosis” value is “concentration-dependent apoptosis” in the data set with HepG2 cells and “low apoptosis rate” in the data set on HEK293T cells. In the data set on HT29 cells, the “induction of early apoptosis” value is on record as “ineffective in inducing apoptosis”. Also, in data set [2], the “cleaved caspase-3 (and PARP) expression” value is listed as “little change”. The “increase in PARP relative to buffer-treated controls (defined as 1)” value in the data set with PARP is 457 fold. In the data set on HT29 tumor, this substance gave a TUNEL-positive tumor cells of 0.01%. Further, the “average size (DLS)” value in data set [3] is 25.85 nm.

The values above are taken from US20210054047A1, “NOVEL ANTICANCER FUSION PROTEIN AND USE THEREOF” (KOREA INSTITUTE OF SCIENCE AND TECHNOLOGY, priority 2018, published 2021).
